Results as given in patent publication US12325863B2, “MDA-7/IL-24 secretory variants and methods of use” (Virginia Commonwealth University, priority 2018, dated 2025).
Numbering of substitutions follows the chain as printed. Names and notes keep the numbering of the source.

Assays:
RWPE-1 cells = assay: MTT assay with Mcl-1 inhibitors, RWPE-1; assay type: cell-based, human; details: alone or in combination with MDA-7/IL-24, 48 hrs; FIG. 26C
Protocol: Human (DU-145) CaP cells were treated with different targeted small molecules alone (FIG. 26A) or in combination with MDA-7/IL-24 (FIG. 26B), and after 48 hrs cell growth was measured by MTT. * indicates statistical significance vs. respective control group. Immortalized primary normal human prostate epithelial cells, RWPE-1, were treated with different combinations as indicated and MTT assays were performed at 48 hrs (FIG. 26C). Murine (RMI-BM) CaP cells were treated with different targeted small molecules alone (FIG. 26D) or in combination with MDA-7/IL-24 (FIG. 26E), and after 48 hrs. cell growth was measured by MTT.
To test a multi-target approach for treatment of prostate cancer bone metastases, experiments were conducted to target Mcl-1 inhibition and investigate the effects on NG-mda-7/IL-24 efficacy. Using NMR (nuclear magnetic resonance) and computational biology, two Mcl-1 inhibitors were identified (Sabutoclax and BI-97D6) and their activity was validated in immune competent mice in combination with MDA-7/IL-24. In addition to these inhibitors, three commercially available targeted inhibitors were evaluated to determine potential synergistic effects with MDA-7/IL-24. The three inhibitors were UMI-77 (showing selectivity to Mcl-1 over other members of the Bcl-2 family), Marinopyrrole A (selective inhibitor of Mcl-1), and A-1210477. […]

[1] = system: human prostate cancer PC3-ML cells; assay: PC3-ML intracardiac bone metastasis model in athymic nude mice; assay type: in vivo; details: single agent, versus control group
Protocol: To test a multi-target approach for treatment of prostate cancer bone metastases, experiments were conducted to target Mcl-1 inhibition and investigate the effects on NG-mda-7/IL-24 efficacy. Using NMR (nuclear magnetic resonance) and computational biology, two Mcl-1 inhibitors were identified (Sabutoclax and BI-97D6) and their activity was validated in immune competent mice in combination with MDA-7/IL-24. In addition to these inhibitors, three commercially available targeted inhibitors were evaluated to determine potential synergistic effects with MDA-7/IL-24. The three inhibitors were UMI-77 (showing selectivity to Mcl-1 over other members of the Bcl-2 family), Marinopyrrole A (selective inhibitor of Mcl-1), and A-1210477. […] Mcl-1 expression was elevated by 1.7-fold in RM1-BM (RM1-BM cells selected for enhanced metastasis to bone) as compared to RM1 cells, indicating functional relevance of Mcl-1 in this metastatic process. […] This further supported the cancer-specificity of specific Mcl-1 inhibitors. Next, the therapeutic effect of MDA-7/IL-24 protein in combination with BI-97D6 was tested, in male athymic nude mice injected by the intracardiac route with human prostate cancer PC3-ML cells, resulting in bone metastases.

[2] = Sabutoclax and BI-97D6 in combination with MDA-7/IL-24; details: combined with MDA-7/IL-24; earlier observation referred to
Protocol: To test a multi-target approach for treatment of prostate cancer bone metastases, experiments were conducted to target Mcl-1 inhibition and investigate the effects on NG-mda-7/IL-24 efficacy. […] In addition to these inhibitors, three commercially available targeted inhibitors were evaluated to determine potential synergistic effects with MDA-7/IL-24. […] Next, the therapeutic effect of MDA-7/IL-24 protein in combination with BI-97D6 was tested, in male athymic nude mice injected by the intracardiac route with human prostate cancer PC3-ML cells, resulting in bone metastases.

SARI = SARI expression at the transcript level in transfected DU-145 cells; assay type: cell-based, human
Protocol: (§1) SARI expression was determined at the transcript level in DU-145 cells after transfection with the indicated plasmids. […] The protein expression of MDA-7/IL-24 from the conditioned media (FIG. 5) and cell lysates (FIG. 6) of HeLa cells transfected with full length MDA-7 and Insulin(sp)-MDA-7 was assayed.
(§2) Having an MDA-7/IL-24 construct with enhanced protein secretion as well as enhanced protein stability may be very valuable as a potential gene therapeutic for cancer. Accordingly, lysine 122 was mutated to arginine in the Insulin(sp)-MDA-7 construct using site-directed mutagenesis. […] PARP cleavage and the expression of GRP-78 were also assessed in DU-145 cells following transfection with MDA-7(sp)-MDA-7 (wild type MDA-7 signal peptide), Insulin(sp)-MDA-7, MDA-7(sp)-MDA-7(K122R) and Insulin(sp)-MDA-7(K122R) (FIG. 13).
(§3) PARP cleavage and the expression of GRP-78 were also evaluated in DU-145 cells following transfection with these four constructs, the results for which are shown in FIG. 20.

DU-145 cells [3] = assay: MTT assay, DU-145 cells treated with conditioned media from transfected HeLa cells; assay type: cell-based, human; details: vs control conditioned media, FIG. 9
Text: (§4) Next, lysine 122 of MDA-7/IL-24 was converted to arginine by site directed mutagenesis using forward primer (5′-[…]-3′) (SEQ ID NO: 19) and reverse primer (5′-[…]-3′) (SEQ ID NO: 20). […] These enzymes are capable of reducing the tetrazolium dye MTT 3-(4,5-dimethylthiazol-2-yl)-2,5-diphenyltetrazolium bromide to its insoluble formazan, which has a purple color.

HeLa cells [4] = assay: MTT assay following transfection of HeLa cells with constructs; assay type: cell-based, human; details: for proliferation (MTT): following transfection of HeLa cells, FIG. 14
Text: as §4, §2, §3

HeLa cells [5] = assay: MDA-7/IL-24 protein in conditioned media and lysates of transfected HeLa cells (Western blotting); assay type: cell-based, human
Protocol: as §1, §4

HeLa cells [6] = assay: MTT assay, HeLa cells treated with conditioned media from transfected HeLa cells; assay type: cell-based, human; details: vs control conditioned media, FIG. 8
Text: as §4

DU-145 cells [7] = assay: ELISA of MDA-7/IL-24 protein in conditioned media of transfected DU-145 cells; assay type: cell-based, human; details: DU-145 cells transfected; FIG. 10
Protocol: In an effort to enhance its anti-cancer activity, genetic engineering experiments were conducted to enhance MDA-7/IL-24 secretion. Five different signal peptides (abbreviated “sp”) were introduced, linked to MDA-7/IL-24, and assessed for protein secretion. The five signal peptides tested were endogenous human MDA-7/IL-24, human IL-2, human Insulin, Flt-3 and human BM40 (osteonectin/SPARC) signal peptides. The constructs were designated MDA-7(sp)-MDA-7 (wild type MDA-7 signal peptide), IL-2(sp)-MDA-7, Insulin(sp)-MDA-7, Flt-3(sp)-MDA-7 and BM40(sp)-MDA-7, respectively. Each of these constructs also included a Histidine-tag. These constructs were transfected into DU-145 cells (human prostate cancer cells).
The presence of MDA-7/IL-24 in the conditioned media was assessed by enzyme-linked immunosorbent assay (ELISA) and results are shown in FIG. 2.
as §2

DU-145 cells [8] = assay: MDA-7/IL-24 transcript level (RTQ-PCR) in transfected DU-145 cells; assay type: cell-based, human; details: DU-145 cells transfected; FIG. 11
DU-145 cells [9] = assay: M4 expression in conditioned media of transfected DU-145 cells (ELISA); assay type: cell-based, human; details: compared to the other 3 signal peptides, FIG. 17
Protocol: To determine if different sequence motifs could enhance the secretion of M4 over Flt-3(sp)-M4, three additional signal peptides linked to M4 were introduced and protein secretion was assessed. The four signal peptides tested were endogenous human MDA-7/IL-24, human IL-2, human Insulin, and Flt-3 signal peptides. The constructs were designated MDA-7(sp)-M4 (wildtype MDA-7/IL-24 secretory peptide), IL-2(sp)-M4, Insulin(sp)-M4, and Flt-3(sp)-M4, respectively, and a schematic illustration is shown in FIG. 16. Each of these constructs also included a Histidine-tag. These constructs were transfected into DU-145 cells and assessed for expression of M4 in the conditioned media (FIG. 17) and at the transcript level (FIG. 18). An MDA-7/IL-24 antibody and RT-Q-PCR primers able to detect M4 were used to assess M4 expression.
as §3

DU-145 cells [10] = assay: M4 protein in lysate and conditioned media of transfected DU-145 cells; assay type: cell-based, human; details: K122R versus Flt-3(sp)-M4, FIG. 22
Text: (§5) As noted in Example 1, improvements were obtained by mutating lysine at position 122 to arginine in full-length MDA-7/IL-24. The corresponding lysine was identified in M4 and mutated to arginine using site directed mutagenesis using forward primer (5′-[…]-3′) (SEQ ID NO: 19) and reverse primer (5′-[…]-3′) (SEQ ID NO: 20). Next, Flt-3(sp)-M4 and Flt-3(sp)-M4(K122R) were transfected into DU-145 cells. […] The conditioned media from transfected IM-PHFA (immortalized primary human fetal astrocytes) cells was added to DU-145 cells and MTT assays were performed (FIG. 24).

DU-145 cells [11] = assay: MTT assay, DU-145 cells treated with conditioned media from transfected IM-PHFA cells; assay type: cell-based, human; details: compared to the control, FIG. 24
Text: as §5

## O=C(c1ccccc1O)c1[nH]c(Cl)c(Cl)c1-n1c(C(=O)c2ccccc2O)cc(Cl)c1Cl [Marinopyrrole A]
RWPE-1 cells
  anti-proliferative effects (MTT): anti-proliferative effects

## BI-97D6 [reference compound]
[1]
  bone metastases: statistically significant inhibition of bone metastases
[2]
  antitumor synergy: antitumor synergy

B1: Insulin(sp)-MDA-7: human Insulin signal peptide linked to MDA-7/IL-24, Histidine-tag; encoded by SEQ ID NO: 6 (protein)
chain: MALWMRLLPLLALLALWGPDPAAAHHHHHHENLYFQGMQEFHFGPCQVKGVVPQKLWEAFWAVKDTMQAQDNITSARLLQQEVLQNVSDAESCYLVHTLLEFYLKTVFKNYHNRTVEVRTLKSFSTLANNFVLIVSQLQPSQENEMFSIRDSAHRRFLLFRRAFKQLDVEAALTKALGEVDILLTWMQKFYKL
SARI; DU-145 cells, five signal peptide MDA-7 constructs, FIG. 4
  SARI expression at the transcript level: highest SARI expression
DU-145 cells [3]
  proliferation (MTT): decrease in proliferation
HeLa cells [4]
  proliferation (MTT): decrease in proliferation
HeLa cells [5]; HeLa cells, versus full length MDA-7, FIGS. 5, 6
  MDA-7/IL-24 protein secretion: dramatic increase in MDA-7/IL-24 protein secretion
HeLa cells [6]
  proliferation (MTT): decrease in proliferation

B2: MDA-7(sp)-MDA-7(K122R): MDA-7/IL-24 with lysine 122 converted to arginine; encoded by SEQ ID NO: 10 (protein, UniProt Q13007 1-206, looked up, variant K122R)
chain: MNFQQRLQSLWTLARPFCPPLLATASQMQMVVLPCLGFTLLLWSQVSGAQGQEFHFGPCQVKGVVPQKLWEAFWAVKDTMQAQDNITSARLLQQEVLQNVSDAESCYLVHTLLEFYLKTVFRNYHNRTVEVRTLKSFSTLANNFVLIVSQLQPSQENEMFSIRDSAHRRFLLFRRAFKQLDVEAALTKALGEVDILLTWMQKFYKL
modifications: full-length
DU-145 cells [3]
  proliferation (MTT): decrease in proliferation
HeLa cells [4]
  proliferation (MTT): decrease in proliferation
HeLa cells [5]; HeLa cells transfected, FIG. 5
  protein in the conditioned media by Western blotting: increase in protein
HeLa cells [5]; HeLa cells transfected, FIG. 6
  protein in cell lysate by Western blotting: increase in protein
HeLa cells [6]
  proliferation (MTT): decrease in proliferation

B3: Insulin(sp)-MDA-7(K122R): insulin signal peptide fused to the K122R mutation variant of MDA-7/IL-24; encoded by SEQ ID NO: 11 (protein)
chain: B1 chain with K109R
DU-145 cells [7]
  MDA-7/IL-24 expression in the conditioned media using ELISA: enhanced MDA-7/IL-24 expression
SARI; compared to Insulin(sp)-MDA-7 or MDA-7 containing K122R, FIG. 12
  SARI induction at the transcript level: highest SARI induction
DU-145 cells [8]
  MDA-7/IL-24 expression at the transcript level using RTQ-PCR: enhanced MDA-7/IL-24 expression
HeLa cells [4]
  proliferation (MTT): decrease in proliferation

B4: Insulin(sp)-M4: human Insulin signal peptide linked to M4; encoded by SEQ ID NO: 12 (protein)
chain: MALWMRLLPLLALLALWGPDPAAAHHHHHHENLYFQGMESCYLVHTLLEFYLKTVFKNYHNRTVEVRTLKSFSTLANNFVLIVSQLQPSQENEMFSIRDSAHRRFLLFRRAFKQLDVEAALTKALGEVDILLTWMQKFYKL
SARI; DU-145 cells, four signal peptide M4 constructs, FIG. 19
  SARI expression: highest SARI expression
DU-145 cells [9]
  M4 protein secretion: enhanced M4 protein secretion to a greater extent
HeLa cells [4]; M4 constructs, transfection of HeLa cells, FIG. 21
  growth (MTT): growth suppression

B5: Flt-3(sp)-M4(K122R): Flt-3(sp)-M4 with the corresponding lysine mutated to arginine; encoded by SEQ ID NO: 16 (protein)
chain: MTVLAPAWSPTTYLLLLLLLSGSESCYLVHTLLEFYLKTVFRNYHNRTVEVRTLKSFSTLANNFVLIVSQLQPSQENEMFSIRDSAHRRFLLFRRAFKQLDVEAALTKALGEVDILLTWMQRFYKLGGSHHHHHH
DU-145 cells [10]
  protein in cell lysates: increase in protein
  protein in the conditioned media: increase in protein
DU-145 cells [11]
  cell growth (MTT): cell growth suppression

B6: Flt-3(sp)-M4: Flt-3 signal peptide linked to M4; encoded by SEQ ID NO: 14 (protein)
chain: B5 chain with R42K, R122K
DU-145 cells [11]
  cell growth (MTT): cell growth suppression
